From patent publication US20110311550A1 (Scripps Research, published 2011)

Assays:
[1] = target: T1, vaccinia-expressed E1E2 complex, isolate HCV-1 (genotype 1a) (hepatitis C virus, isolate HCV-1, UniProt P26664 192-383; P26664 384-746); assay: competition ELISA on HCV-1 E1E2; competitor m34 (6/53)
[2] = target: T2, E1E2 complex of HCV isolate H77 (genotype 1a), wild type (HCV isolate H77, UniProt P27958 192-383; P27958 384-746); assay: competition ELISA on H77 E1E2; competitor m38 (Fab N2)
[3] = target: T2, E1E2 complex of HCV isolate H77 …; assay: competition ELISA on H77 E1E2; competitor m37 (Fab N1)
[4] = target: T1, vaccinia-expressed E1E2 complex, …; assay: competition ELISA on HCV-1 E1E2; competitor m1 (AR1A)
[5] = target: T2, E1E2 complex of HCV isolate H77 …; assay: competition ELISA on H77 E1E2; competitor m39 (Fab N3)
[6] = target: T1, vaccinia-expressed E1E2 complex, …; assay: competition ELISA on HCV-1 E1E2; competitor m31 (11/20)
[7] = target: T1, vaccinia-expressed E1E2 complex, …; assay: competition ELISA on HCV-1 E1E2; competitor m28 (1/39)
[8] = target: T1, vaccinia-expressed E1E2 complex, …; assay: competition ELISA on HCV-1 E1E2; competitor m3 (AR2A)
[9] = target: T1, vaccinia-expressed E1E2 complex, …; assay: competition ELISA on HCV-1 E1E2; competitor m24 (7/59)
[10] = target: E1E2 (Env) of HCV isolate UKN4.21.16 (genotype 4) on HCVpp (hepatitis C virus, isolate UKN4.21.16); assay: cell-based or functional assay
[11] = target: E1E2 (Env) of HCV isolate UKN2A1.2 (genotype 2a) on HCVpp (hepatitis C virus, isolate UKN2A1.2); assay: cell-based or functional assay
[12] = target: E1E2 (Env) of HCV isolate UKN1B12.16 (genotype 1b) on HCVpp (hepatitis C virus, isolate UKN1B12.16); assay: cell-based or functional assay
[13] = target: T2, E1E2 complex of HCV isolate H77 …; assay: cell-based or functional assay
[14] = target: VSV (control pseudotype virus envelope); assay: cell-based or functional assay
[15] = target: E1E2 (Env) of HCV isolate UKN2B1.1 (genotype 2b) on HCVpp (hepatitis C virus, isolate UKN2B1.1); assay: cell-based or functional assay
[16] = target: E1E2 (Env) of HCV isolate OH8 (genotype 1b) on HCVpp (hepatitis C virus, isolate OH8); assay: cell-based or functional assay
[17] = target: E1E2 (Env) of HCV isolate J6 (genotype 2a) on HCVpp (hepatitis C virus, isolate J6, UniProt P26660 192-383; P26660 384-750); assay: cell-based or functional assay
[18] = target: E1E2 (Env) of HCV isolate UKN5.15.7 (genotype 5) on HCVpp (hepatitis C virus, isolate UKN5.15.7); assay: cell-based or functional assay
[19] = target: T2, E1E2 complex of HCV isolate H77 …; assay: competition ELISA on H77 E1E2; competitor m45 (Fab P3)
[20] = target: T1, vaccinia-expressed E1E2 complex, …; assay: competition ELISA on HCV-1 E1E2; competitor m23 (H53)
[21] = target: T1, vaccinia-expressed E1E2 complex, …; assay: competition ELISA on HCV-1 E1E2; competitor m7 (AR3D)
[22] = target: T1, vaccinia-expressed E1E2 complex, …; assay: competition ELISA on HCV-1 E1E2; competitor m36 (A4)
[23] = target: T1, vaccinia-expressed E1E2 complex, …; assay: competition ELISA on HCV-1 E1E2; competitor m4 (AR3A)
[24] = target: E1E2 (Env) of HCV isolate H (genotype 1a) on HCVpp (hepatitis C virus, isolate H); assay: cell-based or functional assay

Binder	% residual binding [1] [%]	% residual binding [2] [%]	% residual binding [3] [%]	% residual binding [4] [%]	% residual binding [6] [%]	% residual binding [7] [%]	% residual binding [8] [%]	Neutralizing activity (IC50) on HCVpp [10] [µg/mL]	Neutralizing activity (IC50) on HCVpp [11] [µg/mL]	Neutralizing activity (IC50) on HCVpp [12] [µg/mL]	Neutralizing activity (IC50) on HCVpp [13] [µg/mL]	Neutralizing activity (IC50) on control pseudotype virus [14] [µg/mL]	Neutralizing activity (IC50) on HCVpp [15] [µg/mL]	Neutralizing activity (IC50) on HCVpp [16] [µg/mL]	Neutralizing activity (IC50) on HCVpp [17] [µg/mL]	Neutralizing activity (IC50) on HCVpp [18] [µg/mL]	% residual binding [19] [%]	% residual binding [20] [%]	% residual binding [21] [%]	% residual binding [22] [%]	also measured
MAb AR1A (antibody, V domains shown, also called IgG1 of Fab B2) VH: LEQSGAEVKKPGSSVKVSCRASGSPYSSYTITWVRQAPGQGLEWMGGIILMTGKANYAQKFQGRVTITADRATATAYMEMSSLTSDDTAIYYCARDPYVYAGDDVRSLSRWGQGTPVIVSS VL: not shown	89	82	83	15	84	84	100	> 50	> 50	> 50	> 50	> 50	> 50	> 50	> 50	> 50	85	20	54	97	% residual binding [5]: 71%; % residual binding [9]: 70%; % residual binding [23]: 44%
MAb AR1B (antibody, V domains shown, also called IgG1 of Fab D1) VH: LESGGGLVQPGGSLRLSCEASGYYFSSFAMSWVRQTPGKGLEWVSSIAGGTLGRTSYRDSVKGRFTISRDNSKNTVFLHMNNLRPEDTAVYYCAKDPLLFAGGPNWFDHWGQGTLVTVSS VL: not shown	92	100	95	15	79	89	89	> 50	> 50	> 50	> 50	> 50	> 50	> 50	> 50	> 50	93	12	84	103	% residual binding [5]: 92%; % residual binding [9]: 77%; % residual binding [23]: 76%
MAb AR2A (antibody, V domains shown, also called IgG1 of Fab G) VH: LEQSGAEMKKPGASLKVSCKTSGYTFDDYGVTWVRQAPGQGLEWMGWISAYSGNTFYARKFQGRVTMTTDPSTRTAYMELRSLRSDDTAVYFCARDRGLAINGVVFPYFGLDVWGQGTTVTVSS VL: ELTQSPVSLPVTPGEPASISCRSSQSLLHSNGNHYLDWYLQKPGQSPQLLMYLGSNRASGVPDRFSGSGSGTDFTLKISRVEAEDVGVYYCMQGLQTPWTFGQGTKVEIKR	92	86	85	76	84	90	15	1	5	> 50	1	> 50	10	> 50	> 50	10	72	107	75	92	% residual binding [5]: 69%; % residual binding [9]: 99%; Neutralizing activity (IC50) on HCVpp [24]: 5 µg/mL; % residual binding [23]: 76%
MAb AR3C (antibody, V domains shown, also called IgG1 of Fab H3) VH: LEQSGAEVKKPGSSVKVSCETSGGTLDNYALNWVRQAPGQGLEWIGGVVPLFGTTRNAQKFQGRVTISDDKSTGTGHMELRSLRSEDTAVYYCVRSVTPRYCGGGFCYGEFDYWGQGTLVTVSS VL: ELTQSPATLSVSPGERATLSCRASQSVSSNLAWYQQKPGQAPRLLIYGASTRATGIPARFSGSGSGTEFTLTVSRLEPEDSAVYFCQQYYRSPLTFGGGTKVEIKR	105	116	146	34	62	83	83	1	10	1	1	> 50	10	5	10	1	124	77	12	93	% residual binding [5]: 92%; % residual binding [9]: 95%; Neutralizing activity (IC50) on HCVpp [24]: 1 µg/mL; % residual binding [23]: 9%
MAb AR3D (antibody, V domains shown, also called IgG1 of Fab L4) VH: LEQSGAEVKKPGSSVKVSCKASGDTFRSYVITWARQAPGQGLEWMGAIIPFFGTTNLAQKFQGRVTITADESTKTVYMDLSSLRSDDTAVYYCAKAGDLSVGGVLAGGVPHLRHFDPWGQGTLVTVSS VL: ELTQSPGTLSLSPGERATLSCRAGQTVASNSLAWYQHKPGQAPRLLIYGASIRASGIPDRFSGSGSGTDFTLTISRLEPEDFAVYYCQQYGLSSTFGQGTRLEIKR	103	98	131	43	47	80	75	1	25	1	1	> 50	25	5	50	10	118	74	14	90	Neutralizing activity (IC50) on HCVpp [24]: 1 µg/mL; % residual binding [23]: 13%
